The source of these data is article PMC7229824 (Nucleic Acids Research, 2020).

The assay deals with GST-PCAF (human, UniProt Q92831 1-832). In words: pull-down.
GST-PCAF, sequence (Q92831 whole entry): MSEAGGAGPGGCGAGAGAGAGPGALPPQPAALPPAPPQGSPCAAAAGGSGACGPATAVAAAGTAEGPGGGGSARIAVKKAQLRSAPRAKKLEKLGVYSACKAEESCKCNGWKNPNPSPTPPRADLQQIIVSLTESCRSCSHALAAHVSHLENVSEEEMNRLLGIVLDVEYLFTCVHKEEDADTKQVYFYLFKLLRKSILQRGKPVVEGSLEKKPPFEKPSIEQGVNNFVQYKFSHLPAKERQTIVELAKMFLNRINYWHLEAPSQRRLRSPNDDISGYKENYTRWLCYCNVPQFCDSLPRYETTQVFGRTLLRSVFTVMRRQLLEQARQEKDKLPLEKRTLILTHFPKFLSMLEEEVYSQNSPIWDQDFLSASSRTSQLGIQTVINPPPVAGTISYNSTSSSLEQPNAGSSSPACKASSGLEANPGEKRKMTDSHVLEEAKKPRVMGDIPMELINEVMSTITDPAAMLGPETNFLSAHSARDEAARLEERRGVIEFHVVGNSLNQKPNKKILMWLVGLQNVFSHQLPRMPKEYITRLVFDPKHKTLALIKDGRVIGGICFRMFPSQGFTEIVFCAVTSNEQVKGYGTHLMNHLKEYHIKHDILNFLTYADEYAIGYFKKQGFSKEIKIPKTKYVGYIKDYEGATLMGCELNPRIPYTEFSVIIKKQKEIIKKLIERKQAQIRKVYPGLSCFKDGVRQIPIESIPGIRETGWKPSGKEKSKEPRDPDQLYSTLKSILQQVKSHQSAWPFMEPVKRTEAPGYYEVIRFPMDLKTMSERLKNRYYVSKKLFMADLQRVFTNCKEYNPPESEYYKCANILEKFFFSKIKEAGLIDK

B1: His-HMGA2 (natural protein)
chain: MSARGEGAGQPSTSAQGQPAAPAPQKRGRGRPRKQQQEPTGEPSPKRPRGRPKGSKNKSPSKAAQKKAEATGEKRPRGRPRKWPQQVVQKKPAQEETEETSSQESAEED
With B1, the binding result is “binds”.
